According to patent publication US20230121433A1:

Tests used:
Test in all cases: cell-based or functional assay
[1] = target: CSR 2DH.TF2z
[2] = target: CSR 01 CD2.DH.z
[3] = target: CSR 82DH.TF2z
[4] = target: CSR 2DH.2TF2z WT
[5] = target: CSR 82DH.2TF2z WT
Sequence of CSR 82DH.2TF2z WT (chain, as listed by the source): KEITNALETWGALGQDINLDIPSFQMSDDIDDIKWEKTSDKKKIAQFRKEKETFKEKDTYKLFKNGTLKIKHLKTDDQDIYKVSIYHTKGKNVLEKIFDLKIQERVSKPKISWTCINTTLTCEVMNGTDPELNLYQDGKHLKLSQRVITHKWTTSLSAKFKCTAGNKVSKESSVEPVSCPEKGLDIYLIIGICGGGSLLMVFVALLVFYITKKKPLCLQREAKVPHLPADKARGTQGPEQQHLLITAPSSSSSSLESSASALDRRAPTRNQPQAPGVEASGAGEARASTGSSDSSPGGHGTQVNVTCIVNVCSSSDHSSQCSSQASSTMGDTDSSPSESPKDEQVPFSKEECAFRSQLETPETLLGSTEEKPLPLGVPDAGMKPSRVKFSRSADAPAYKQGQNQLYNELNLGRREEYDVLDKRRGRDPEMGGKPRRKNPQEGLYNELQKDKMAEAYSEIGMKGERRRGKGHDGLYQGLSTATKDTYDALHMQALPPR

Sequence of CSR 82DH.TF2z (chain, as listed by the source): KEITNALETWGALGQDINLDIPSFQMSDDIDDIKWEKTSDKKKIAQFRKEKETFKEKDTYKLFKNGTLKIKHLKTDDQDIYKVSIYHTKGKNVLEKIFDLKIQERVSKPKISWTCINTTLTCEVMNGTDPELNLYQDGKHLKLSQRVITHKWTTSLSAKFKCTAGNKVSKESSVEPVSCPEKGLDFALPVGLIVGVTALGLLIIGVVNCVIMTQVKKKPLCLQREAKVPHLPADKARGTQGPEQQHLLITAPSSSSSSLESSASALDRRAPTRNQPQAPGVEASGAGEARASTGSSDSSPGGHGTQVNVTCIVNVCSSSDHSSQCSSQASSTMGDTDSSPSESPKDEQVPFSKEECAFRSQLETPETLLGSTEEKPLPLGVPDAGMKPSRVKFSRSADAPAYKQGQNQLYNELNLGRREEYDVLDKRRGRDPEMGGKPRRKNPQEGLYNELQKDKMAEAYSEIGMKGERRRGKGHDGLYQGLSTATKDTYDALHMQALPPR
Sequence of CSR 01 CD2.DH.z (chain, as listed by the source): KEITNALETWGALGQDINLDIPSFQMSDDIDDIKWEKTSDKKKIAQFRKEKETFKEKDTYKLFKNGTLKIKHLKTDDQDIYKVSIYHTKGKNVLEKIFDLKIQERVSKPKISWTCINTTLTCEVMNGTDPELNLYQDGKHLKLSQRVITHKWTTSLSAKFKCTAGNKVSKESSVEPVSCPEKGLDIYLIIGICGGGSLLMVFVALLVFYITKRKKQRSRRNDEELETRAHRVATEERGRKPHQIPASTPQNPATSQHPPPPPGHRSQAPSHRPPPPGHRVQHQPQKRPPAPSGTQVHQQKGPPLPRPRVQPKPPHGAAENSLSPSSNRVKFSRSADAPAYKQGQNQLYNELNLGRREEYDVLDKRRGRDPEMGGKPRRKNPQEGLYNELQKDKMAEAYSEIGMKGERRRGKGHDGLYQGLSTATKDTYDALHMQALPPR
Sequence of CSR 2DH.2TF2z WT (chain, as listed by the source): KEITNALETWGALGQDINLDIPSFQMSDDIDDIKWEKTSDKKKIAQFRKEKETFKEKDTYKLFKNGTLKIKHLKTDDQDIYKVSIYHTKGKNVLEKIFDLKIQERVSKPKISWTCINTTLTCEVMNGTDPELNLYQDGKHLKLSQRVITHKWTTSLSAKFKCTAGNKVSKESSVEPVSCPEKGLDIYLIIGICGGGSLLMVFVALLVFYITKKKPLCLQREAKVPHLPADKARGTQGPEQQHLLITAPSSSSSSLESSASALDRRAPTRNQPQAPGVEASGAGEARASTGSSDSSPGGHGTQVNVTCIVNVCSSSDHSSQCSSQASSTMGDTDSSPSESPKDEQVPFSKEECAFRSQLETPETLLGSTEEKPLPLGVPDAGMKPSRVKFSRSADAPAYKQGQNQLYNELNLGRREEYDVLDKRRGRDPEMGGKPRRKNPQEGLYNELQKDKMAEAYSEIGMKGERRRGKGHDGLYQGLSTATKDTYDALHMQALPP
Sequence of CSR 2DH.TF2z (chain, as listed by the source): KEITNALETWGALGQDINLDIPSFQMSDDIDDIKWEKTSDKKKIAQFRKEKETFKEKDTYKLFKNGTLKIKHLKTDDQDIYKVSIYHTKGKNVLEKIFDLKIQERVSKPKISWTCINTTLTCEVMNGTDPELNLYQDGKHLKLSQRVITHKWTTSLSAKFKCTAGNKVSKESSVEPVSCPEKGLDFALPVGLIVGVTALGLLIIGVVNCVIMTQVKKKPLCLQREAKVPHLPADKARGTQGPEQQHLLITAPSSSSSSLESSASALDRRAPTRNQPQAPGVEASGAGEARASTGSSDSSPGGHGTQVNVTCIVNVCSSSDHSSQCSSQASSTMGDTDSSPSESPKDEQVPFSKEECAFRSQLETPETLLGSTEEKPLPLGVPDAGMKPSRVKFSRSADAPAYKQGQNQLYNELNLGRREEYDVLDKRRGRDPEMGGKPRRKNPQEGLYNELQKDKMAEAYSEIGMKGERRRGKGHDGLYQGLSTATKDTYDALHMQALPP

Immunocult Human CD2 T cell activator (StemCell Technologies)
pSTAT5 Expression post activation in Treg cells (% of live cells), +16 hours, Donor 4 (% of live cells) [1]: 9.24
pSTAT5 Expression post activation in Treg cells (% of live cells), +24 hours, Donor 4 (% of live cells) [1]: 8.64
pSTAT5 Expression post activation in pan T cells (% of live cells), +4 hours, Donor 1 (% of live cells) [1]: 5.43
pSTAT5 Expression post activation in pan T cells (% of live cells), +4 hours, Donor 2 [1]: 4.2%
pSTAT5 Expression post activation in pan T cells (% of live cells), +24 hours, Donor 1 [1]: 5.67%
pSTAT5 Expression post activation in pan T cells (% of live cells), +24 hours, Donor 2 [1]: 5.17%
pSTAT5 Expression post activation in Treg cells (% of live cells), +16 hours, Donor 4 [2]: 7.1%
pSTAT5 Expression post activation in Treg cells (% of live cells), +16 hours, Donor 5 [2]: 10.3%
pSTAT5 Expression post activation in Treg cells (% of live cells), +24 hours, Donor 4 [2]: 10.5%
pSTAT5 Expression post activation in Treg cells (% of live cells), +24 hours, Donor 5 [2]: 11.1%
pSTAT5 Expression post activation in pan T cells (% of live cells), +4 hours, Donor 1 (% of live cells) [2]: 3.52
pSTAT5 Expression post activation in pan T cells (% of live cells), +4 hours, Donor 2 (% of live cells) [2]: 41.1
pSTAT5 Expression post activation in pan T cells (% of live cells), +24 hours, Donor 1 (% of live cells) [2]: 17.7
pSTAT5 Expression post activation in pan T cells (% of live cells), +24 hours, Donor 2 [2]: 47.9%
pSTAT5 Expression post activation in Treg cells (% of live cells), +16 hours, Donor 4 (% of live cells) [3]: 10.5
pSTAT5 Expression post activation in Treg cells (% of live cells), +24 hours, Donor 4 (% of live cells) [3]: 11.6
pSTAT5 Expression post activation in pan T cells (% of live cells), +4 hours, Donor 1 (% of live cells) [3]: 5.49
pSTAT5 Expression post activation in pan T cells (% of live cells), +4 hours, Donor 2 (% of live cells) [3]: 5.09
pSTAT5 Expression post activation in pan T cells (% of live cells), +24 hours, Donor 1 (% of live cells) [3]: 6.16
pSTAT5 Expression post activation in pan T cells (% of live cells), +24 hours, Donor 2 (% of live cells) [3]: 10.1
pSTAT5 Expression post activation in Treg cells (% of live cells), +16 hours, Donor 4 [4]: 13.9%
pSTAT5 Expression post activation in Treg cells (% of live cells), +16 hours, Donor 5 (% of live cells) [4]: 10.3
pSTAT5 Expression post activation in Treg cells (% of live cells), +24 hours, Donor 4 (% of live cells) [4]: 15.8
pSTAT5 Expression post activation in Treg cells (% of live cells), +24 hours, Donor 5 (% of live cells) [4]: 13.5
pSTAT5 Expression post activation in pan T cells (% of live cells), +4 hours, Donor 1 [4]: 4.73%
pSTAT5 Expression post activation in pan T cells (% of live cells), +4 hours, Donor 2 (% of live cells) [4]: 2.78
pSTAT5 Expression post activation in pan T cells (% of live cells), +24 hours, Donor 1 (% of live cells) [4]: 8.34
pSTAT5 Expression post activation in pan T cells (% of live cells), +24 hours, Donor 2 (% of live cells) [4]: 15.8
pSTAT5 Expression post activation in Treg cells (% of live cells), +16 hours, Donor 4 [5]: 13.3%
pSTAT5 Expression post activation in Treg cells (% of live cells), +16 hours, Donor 5 (% of live cells) [5]: 7.45
pSTAT5 Expression post activation in Treg cells (% of live cells), +24 hours, Donor 4 [5]: 13.6%
pSTAT5 Expression post activation in Treg cells (% of live cells), +24 hours, Donor 5 [5]: 9.16%
pSTAT5 Expression post activation in pan T cells (% of live cells), +4 hours, Donor 1 [5]: 3.24%
pSTAT5 Expression post activation in pan T cells (% of live cells), +4 hours, Donor 2 (% of live cells) [5]: 11
pSTAT5 Expression post activation in pan T cells (% of live cells), +24 hours, Donor 1 (% of live cells) [5]: 5.5
pSTAT5 Expression post activation in pan T cells (% of live cells), +24 hours, Donor 2 [5]: 6.36%
